This is an account of results in patent US20250297019A1.

For this assay, the target named is human CCR8 (human) (UniProt P51685). Description: cell-based or functional assay.

B1: murine anti-human CCR8 mAb 433H (BD Biosciences) (antibody, from another filing, mouse IgG2a, V domains shown)
VH: EVQLVETGGGLVQPKGSLRLSCAASGFPFNTFAMNWVRQAPGKGLEWLARIRSKSNNYATYYADSVKDRFTISRDDSRRMLYLLMNNVKFEDTAIYYCVRGKENNYGYAMDYWGQGTSVTVSS
VL: DIVMTQAAPSVPVTPGESVSISCRSSQSLLHSNGNTYLYWFLQRPGQSPQLLIYRMSNLASGVPDRFSGSGSGTAFTLRISRVEAEDVGVYYCMQHLEYPFTFGIGTKLELKR
As for B1, the IC50 of CCL1 blocking (Ca2+ influx, CHO/hCCR8.Gna15 cells) came out at 17.6 nM; the induction fold at plateau (about 40 nM antibody), mFcgRIV Jurkat reporter with CHO/hCCR8 was determined as 13 fold; the induction fold, mFcgRIV Jurkat NFAT-luciferase reporter with CHO/hCCR8, at about 1 nM antibody was > 12 fold.
